Read-outs that look alike come from different tables or passages of the source. Each block holds one molecule with its values, some of them ahead of it.
Tests used:
[1] = biological target: T1, DDR1 (Homo sapiens, UniProt Q08345); assay: Inhibition of collagen-induced DDR1 phosphorylation in T47D cells (Jess immunoassay); assay type: cell-based; details: serum-starved T47D cells, 2 h pretreatment, 50 μg/ml human collagen I for 90 minutes
T1 construct: Cultured T47D breast cancer cells were serum starved for 16 hours; endogenous in cells; host or cells: T47D breast cancer cells
Description: Cells treated with 200 nM of 2.45-IN [2-(4-Bromo-2-oxo-1′-(1H-pyrazolo[4,3-b]pyridine-5-carbonyl)spiro[indoline-3,4′-piperidin]-1-yl)-N-(2,2,2-trifluoroethyl) acetamide] were used as positive control for inhibition of DDR1 phosphorylation. Cell lysate was then analyzed via Jess immunoassay (ProteinSimple).
Serum-starved T47D cells were pretreated for two hours with increasing concentrations of monoclonal antibody or IgG control, followed by stimulation with 50 μg/ml of human collagen I for 90 minutes.

[2] = Pharmacokinetic profiles of anti-DDR1 mAbs in mice (ELISA of circulating antibody); assay type: in vivo, mouse; details: female C57B16JrJ mice, intraperitoneal, 10 mg/kg; for Cmax: circulating free and partially bound antibody
Description: To evaluate the pharmacokinetic profiles of anti-DDR1 mAbs, mAbs were administered intraperitoneally to female C57B16JrJ mice at a dose of 10 mg/kg, serial blood sampling was performed over time (FIG. 4A), and ELISA was used to measure circulating free and partially bound antibody. […] Further, as shown in FIG. 4E and Table S1 below, the maximal circulating (free and partially bound) concentrations of each mAb were higher than the concentration required to bind to target (as shown by the surface plasmon resonance results of mAb binding to mouse DDR1 extracellular domain; see Table S2 below). Moreover, the maximal circulating (free and partially bound) concentrations of mAb #9H1 WT IgG1 were higher than the in vitro concentration required to inhibit Collagen I-induced phosphorylation of DDR1 in T47D cells (see FIG. 1).

T1 sequence (Q08345 19-913): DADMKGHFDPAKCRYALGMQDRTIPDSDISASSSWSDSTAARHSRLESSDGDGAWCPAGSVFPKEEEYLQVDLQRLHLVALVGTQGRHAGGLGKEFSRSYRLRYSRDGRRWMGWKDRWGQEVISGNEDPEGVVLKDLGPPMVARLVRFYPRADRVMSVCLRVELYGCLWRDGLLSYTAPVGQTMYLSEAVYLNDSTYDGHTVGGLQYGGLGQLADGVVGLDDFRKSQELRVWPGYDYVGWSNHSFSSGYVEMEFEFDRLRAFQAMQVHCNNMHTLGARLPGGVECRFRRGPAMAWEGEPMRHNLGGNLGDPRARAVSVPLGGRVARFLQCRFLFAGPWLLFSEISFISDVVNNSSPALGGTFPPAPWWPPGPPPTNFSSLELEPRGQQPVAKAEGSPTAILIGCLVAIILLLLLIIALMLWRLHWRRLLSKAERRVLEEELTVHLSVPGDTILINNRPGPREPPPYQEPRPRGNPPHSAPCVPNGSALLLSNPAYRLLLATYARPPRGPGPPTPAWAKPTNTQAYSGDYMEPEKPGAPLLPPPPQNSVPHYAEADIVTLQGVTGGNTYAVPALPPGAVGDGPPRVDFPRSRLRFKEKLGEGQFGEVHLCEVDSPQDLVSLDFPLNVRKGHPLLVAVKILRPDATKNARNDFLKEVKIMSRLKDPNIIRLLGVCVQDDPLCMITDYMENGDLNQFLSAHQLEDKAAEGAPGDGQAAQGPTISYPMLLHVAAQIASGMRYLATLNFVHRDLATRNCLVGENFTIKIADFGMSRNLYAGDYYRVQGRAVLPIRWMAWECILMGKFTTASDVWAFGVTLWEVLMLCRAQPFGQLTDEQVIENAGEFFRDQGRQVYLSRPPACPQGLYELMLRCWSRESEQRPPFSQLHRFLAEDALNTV

inhibition of collagen I-induced phosphorylation of DDR1 (in words) [1]: able to inhibit
B1: rabbit mAb #33: rabbit anti-DDR1 monoclonal antibody, light chain SEQ ID NO: 164, heavy chain SEQ ID NO: 165 (antibody)
heavy: QSVEESGGRLVTPGGSLTLTCTVSGFSLSSYDMSWVRQAPGKGLEWIGISWNSGFVDYASWAKGRFSISKTSTTVDLKITSPTTEDTATYFCARLGADDIYYFNLWGPGTLVTISSGQPKAPSVFPLAPCCGDTPSSTVTLGCLVKGYLPEPVTVTWNSGTLTNGVRTFPSVRQSSGLYSLSSVVSVTSSSQPVTCNVAHPATNTKVDKTVAPSTCSKPTCPPPELLGGPSVFIFPPKPKDTLMISRTPEVTCVVVDVSQDDPEVQFTWYINNEQVRTARPPLREQQFNSTIRVVSTLPIAHQDWLRGKEFKCKVHNKALPAPIEKTISKARGQPLEPKVYTMGPPREELSSRSVSLTCMINGFYPSDISVEWEKNGKAEDNYKTTPAVLDSDGSYFLYSKLSVPTSEWQRGDVFTCSVMHEALHNHYTQKSISRSPGK
light: ELVMTQTPASVEAAVGGTVTIKCQASETISSRLAWYQQKPGQPPKLLIYQASKLPSGVPSRFKGTGSGTEYTLTISDLECADAATYYCQGCYYGGGSFYDSAFGGGTEVVVKGDPVAPTVLIFPPAADQVATGTVTIVCVANKYFPDVTVTWEVDGTTQTTGIENSKTPQNSADCTYNLSSTLTLTSTQYNSHKEYTCKVTQGTTSVVQSFNRGDC

B2: #33 inert IgG1: rabbit mAb #33 heavy and light chain variable domains fused to human IgG1 constant domains; SEQ ID NOs: 23 and 24 (protein)
chain 1: ELVMTQTPASVEAAVGGTVTIKCQASETISSRLAWYQQKPGQPPKLLIYQASKLPSGVPSRFKGTGSGTEYTLTISDLECADAATYYCQGCYYGGGSFYDSAFGGGTEVVVKRTVAAPSVFIFPPSDEQLKSGTASVVCLLNNFYPREAKVQWKVDNALQSGNSQESVTEQDSKDSTYSLSSTLTLSKADYEKHKVYACEVTHQGLSSPVTKSFNRGEC
chain 2: QSVEESGGRLVTPGGSLTLTCTVSGFSLSSYDMSWVRQAPGKGLEWIGISWNSGFVDYASWAKGRFSISKTSTTVDLKITSPTTEDTATYFCARLGADDIYYFNLWGPGTLVTISSASTKGPSVFPLAPSSKSTSGGTAALGCLVKDYFPEPVTVSWNSGALTSGVHTFPAVLQSSGLYSLSSVVTVPSSSLGTQTYICNVNHKPSNTKVDKRVEPKSCDKTHTCPPCPAPEAEGAPSVFLFPPKPKDTLMISRTPEVTCVVVDVSHEDPEVKFNWYVDGVEVHNAKTKPREEQYNSTYRVVSVLTVLHQDWLNGKEYKCKVSNKALPSSIEKTISKAKGQPREPQVYTLPPSREEMTKNQVSLTCLVKGFYPSDIAVEWESNGQPENNYKTTPPVLDSDGSFFLYSKLTVDKSRWQQGNVFSCSVMHEALHNHYTQKSLSLSPGK
exposure over 168 hours (in words) [2]: comparable to expected exposures for IgG1
tmax [2]: 48 h
Cmax [2]: 131.82 µg/mL
Cmax ([2]; read-out: Cmax): 650 nM
